The values that follow are results of earlier work, collected in paper PMC4746476.

In the data set the target is CCL21 (Homo sapiens) (UniProt O00585).
Sequence of UniProt O00585 (O00585 24-134): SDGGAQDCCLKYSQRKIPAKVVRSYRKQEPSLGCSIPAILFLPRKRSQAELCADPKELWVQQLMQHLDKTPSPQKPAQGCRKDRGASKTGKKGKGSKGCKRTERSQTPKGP

With CCR7 (from UniProt P32248), the dissociation constant Kd is 10 nM.
